Test results as given in the Human Domainome abundance scans (Beltran et al. 2025).

B1: Homeobox protein cut-like 2, residues 895 to 963; numbered along this chain, O14529 (parent)
chain: EVDTLELTRQVKEKLAKNGICQRIFGEKVLGLSQGSVSDMLSRPKPWSKLTQKGREPFIRMQLWLSDQL

Variants of: B1
Assay: abundance fitness (aPCA) (normalised: wild type 0, dead -1); higher = more abundant; growth selection in yeast, the domain comes from the species named
Details: Homo sapiens

Abundance fitness of substitutions, site by site:
Q34: K 0.069 | N 0.046 | D -0.078 | F 0.003 | M -0.06 | R 0.282 | G 0.434 | E -0.254 | V 0.073 | C -0.262 | H 0.027 | Y -0.05 | I 0.005 | S -0.028 | A 0.088 | W 0.088 | P 0.053 | L -0.003
I24: K -0.084 | E 0.278 | W 0.103 | M -0.023 | D -0.047 | L 0.033 | S -0.084 | N -0.204 | P -0.934 | R -0.093 | F 0.143 | G -0.347 | C -0.243 | H 0.007 | A -0.117 | Y 0.097
K28: R -0.1 | E -0.026 | C -0.293 | Q 0.012 | L -0.335 | S -0.116 | N -0.242 | W -0.263 | F -0.327 | H -0.128 | A -0.19 | T -0.078 | Y -0.296 | M -0.155 | V -0.184 | I -0.502 | P -0.6 | G -0.184
G19: S -0.01 | V -0.417 | P -0.005 | T -0.332 | R 0.032 | E -0.46 | Q -0.242 | F -0.226 | H -0.374 | Y -0.122 | K 0.009 | I -0.434 | W -0.341 | L -0.31 | N -0.007 | A -0.32
S36: V 0.064 | W -0.057 | I 0.027 | R -0.097 | Y -0.062 | P -0.08 | T 0.002 | M -0.024 | A 0.073 | F -0.093 | Q 0.15 | D 0.134 | H -0.062 | N -0.045 | G -0.34 | L 0.021 | E 0.152
V29: W -0.113 | F -0.174 | P -0.345 | Y -0.145 | S -0.325 | L -0.108 | A -0.36 | H -0.394 | Q -0.381 | R -0.121 | K -0.129 | T -0.258 | D -0.476 | G -0.173 | E -0.535 | M -0.104 | N -0.551 | C -0.104 | I 0.124
S33: Q -0.027 | L -0.057 | G -0.03 | C -0.035 | M 0.053 | N -0.003 | I -0.088 | T -0.036 | K 0.023 | A -0.042 | F -0.009 | Y -0.12 | V -0.061 | P 0.03
F25: M -0.462 | Y -0.779 | V -0.646 | A -0.827 | S -0.721 | E -0.904 | P -1.05 | N -0.803 | C -0.707 | K -0.62 | W -0.053 | T -0.449 | L -0.351 | I -0.711 | G -0.9 | R -0.568
I20: H -0.382 | K -0.32 | V -0.201 | Q -0.202 | P -0.226 | D -0.415 | F -0.058 | Y -0.179 | N -0.453 | A -0.535 | M -0.023 | S -0.342 | E -0.575 | R -0.409 | G -0.412 | C -0.269 | W -0.11
C21: R -0.087 | E -0.04 | S 0.082 | D -0.103 | N 0.015 | P 0.027 | W -0.104 | Y -0.41 | H -0.029 | G -0.062 | F -0.094 | M -0.045 | I -0.115 | K -0.034 | A -0.04 | V -0.174 | T 0.093
Q22: W -0.021 | T -0.151 | A -0.098 | P -0.073 | R -0.062 | K -0.095 | D -0.457 | S -0.089 | L -0.003 | G -0.354 | I -0.223 | F -0.182 | E -0.011 | C -0.306 | V -0.116 | H -0.239 | M -0.071 | N -0.461
L30: M -0.178 | V -0.275 | G -0.387 | Y -0.472 | N -0.425 | S -0.418 | Q -0.423 | W -0.21 | R -0.18 | C -0.234 | T -0.536 | D -0.588 | I -0.301 | K -0.178 | F -0.186 | A -0.447
L32: E -0.227 | T -0.211 | F -0.141 | S -0.203 | R -0.179 | C -0.136 | K -0.169 | M -0.032 | V 0.132 | A -0.279 | Y -0.281 | I -0.063 | W -0.043 | H -0.231 | N -0.305 | P -0.286 | Q -0.304
G26: A 0.082 | Y -0.169 | L -0.162 | W -0.591 | K -0.207 | V -0.263 | E -0.397 | S -0.035 | R -0.295 | Q -0.584 | D -0.306 | I -0.284 | T -0.221 | F -0.02 | H -0.525 | C -0.02 | M -0.153 | P -0.219
V37: N -0.435 | P -0.311 | W -0.061 | I -0.156 | D -0.397 | G -0.206 | A -0.139 | F 0.01 | Y -0.257 | S -0.232 | C -0.031 | K -0.232 | L 0.016 | R -0.223 | H -0.378 | M -0.227 | E -0.436 | T 0
S38: F -0.221 | A 0.015 | D 0.007 | E 0.106 | G -0.097
E27: V -0.18 | F -0.173 | P -0.106 | T -0.149 | N -0.108 | Q -0.007 | I -0.128 | D -0.162 | G -0.072 | Y -0.191 | K 0.001 | R -0.019 | A -0.063 | M -0.14 | W -0.091 | S -0.006
R23: D -0.042 | M -0.207 | L -0.203 | V -0.162 | C -0.317 | F -0.009 | H -0.094 | T -0.155 | P -0.627 | I -0.192 | N 0.038 | E 0.068 | K 0.047 | S -0.101 | Q -0.079 | W -0.154 | G -0.103 | A -0.106
G35: H -0.043 | R 0.037 | V -0.058 | Q 0.088 | Y -0.125 | M -0.098 | L -0.03 | W -0.106 | F -0.079 | D -0.125 | C -0.211 | P -0.077 | T 0.039 | S 0.027 | K 0.124 | E 0.135 | N 0.044 | A -0.006 | I -0.215
G31: L -0.314 | W -0.367 | A -0.226 | S -0.134 | F -0.317 | N -0.121 | H -0.059 | V -0.514 | C -0.257 | T -0.274 | Y -0.449 | I -0.712 | P -0.378 | E -0.48 | R -0.107 | Q -0.213 | D -0.132 | M -0.347 | K -0.129
N18: Y -0.128 | W -0.102
